Data as given in CN114106161A.

Molecular target: SARS-CoV-2 S1蛋白 (ACRO Biosystems) (SARS-CoV-2) (UniProt P0DTC2)
Experiment: BLI, biotinylated SARS-CoV-2 S1 on SA sensor, 1:1 fit

Substance: 针对SARS-CoV和SARS-CoV-2S1的人源抗体CR3022 (antibody)
- Kd: 0.0866 nM
- koff: 1.9e-05 s⁻¹
- kon: 220000 M⁻¹ s⁻¹
